Assay results as given in PMC11168923 (Nature, 2024).

Tests used:
FLVCR2 = biological target: T1, FLVCR2 (Homo sapiens, UniProt Q9UPI3); assay: intrinsic tryptophan fluorescence shift (F350/F330); assay type: binding; settings: 0.5 µM protein; LMNG; pH 7.4; room temperature
T1 construct: full length; transport: pcDNA3.1 in HEK293 with CHKA or ETNK1; structures and fluorescence: C-terminal FLAG tag, Flp-In T-REx293, LMNG
T1 sequence (Q9UPI3 1-526): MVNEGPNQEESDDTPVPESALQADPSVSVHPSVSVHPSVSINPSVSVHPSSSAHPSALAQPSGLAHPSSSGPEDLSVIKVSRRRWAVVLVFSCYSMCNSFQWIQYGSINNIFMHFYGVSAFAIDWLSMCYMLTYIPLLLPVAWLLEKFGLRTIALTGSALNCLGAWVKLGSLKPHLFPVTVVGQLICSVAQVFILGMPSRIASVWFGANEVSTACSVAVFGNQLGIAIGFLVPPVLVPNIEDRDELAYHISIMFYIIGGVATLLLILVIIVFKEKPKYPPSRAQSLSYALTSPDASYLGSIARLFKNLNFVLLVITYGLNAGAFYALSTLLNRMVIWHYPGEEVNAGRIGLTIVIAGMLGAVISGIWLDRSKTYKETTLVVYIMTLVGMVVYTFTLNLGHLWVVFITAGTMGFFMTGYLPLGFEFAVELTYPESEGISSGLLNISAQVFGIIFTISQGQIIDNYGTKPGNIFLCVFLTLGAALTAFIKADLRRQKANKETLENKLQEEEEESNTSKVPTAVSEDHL

FLVCR1 (FLVCR1a) = biological target: T2, FLVCR1 (FLVCR1a) (Homo sapiens, UniProt Q9Y5Y0); assay: as above; assay type: binding; settings: 0.5 µM protein; LMNG; pH 7.4; room temperature
T2 construct: full length; transport: pcDNA3.1 in HEK293 with CHKA or ETNK1; structures and fluorescence: C-terminal FLAG tag, Flp-In T-REx293, LMNG
T2 sequence (Q9Y5Y0 1-555): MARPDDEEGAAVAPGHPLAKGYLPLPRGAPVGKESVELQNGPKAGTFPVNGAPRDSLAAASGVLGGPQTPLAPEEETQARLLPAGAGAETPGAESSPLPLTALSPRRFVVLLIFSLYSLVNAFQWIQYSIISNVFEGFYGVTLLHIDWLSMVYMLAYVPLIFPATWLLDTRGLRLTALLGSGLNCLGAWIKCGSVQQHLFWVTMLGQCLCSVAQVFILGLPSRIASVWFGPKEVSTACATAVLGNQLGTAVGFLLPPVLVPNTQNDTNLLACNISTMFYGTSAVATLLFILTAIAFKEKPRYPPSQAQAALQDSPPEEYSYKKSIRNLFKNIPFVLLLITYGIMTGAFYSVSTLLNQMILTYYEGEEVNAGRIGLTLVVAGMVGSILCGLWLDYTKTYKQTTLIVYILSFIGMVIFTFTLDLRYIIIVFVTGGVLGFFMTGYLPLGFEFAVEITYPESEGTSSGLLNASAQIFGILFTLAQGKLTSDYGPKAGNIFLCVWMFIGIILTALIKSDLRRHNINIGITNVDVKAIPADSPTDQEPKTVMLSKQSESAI

[1] = substrate: C[N+](C)(C)CCO; assay: radioligand uptake dose curve in HEK293 cells; assay type: cell-based, Homo sapiens; settings: CHKA co-expressed, DMEM, 37 °C, 1 h, labelled compound
[2] = substrate: NCCO; assay: radioligand uptake dose curve in HEK293 cells; assay type: cell-based, Homo sapiens; settings: ETNK1 co-expressed, DMEM, 37 °C, 1 h, labelled compound

C[N+](C)(C)CCO [choline]
shift of F350/F330 (FLVCR2): Shifts of tryptophan fluorescence of FLVCR1 and FLVCR2 in the presence of choline or betaine
shift of F350/F330 (FLVCR1 (FLVCR1a)): Shifts of tryptophan fluorescence of FLVCR1 and FLVCR2 in the presence of choline or betaine

B1: FLVCR2 (Homo sapiens) (protein)
chain: T1 sequence (Q9UPI3 1-526)
notes: full length; transport: pcDNA3.1 in HEK293 with CHKA or ETNK1; structures and fluorescence: C-terminal FLAG tag, Flp-In T-REx293, LMNG
Km [1]: 64.0 ± 21.0 µM
Km [2]: 41.5 ± 32.0 µM

B2: FLVCR1 (FLVCR1a) (Homo sapiens) (protein)
chain: T2 sequence (Q9Y5Y0 1-555)
notes: as for B1
Km [1]: 47.4 ± 9.8 µM
Km [2]: 8 ± 1.5 µM
